We go through six molecules from patent US20190315859A1 (EUREKA THERAPEUTICS, published 2019).

T1: Recombinant human CD19 ECD-Fc fusion protein (human, UniProt P15391 20-291, biotinylated for the Octet assay (sites not given); not biotinylated when coated for ELISA)
T1 construct: domain: Fc of human IgG1 lacking the CH1 domain and including the hinge region; also called human CD19-Fc; hCD19 ECD-Fc; not shown: Fc of human IgG1 lacking the CH1 domain and including the hinge region
T1 sequence: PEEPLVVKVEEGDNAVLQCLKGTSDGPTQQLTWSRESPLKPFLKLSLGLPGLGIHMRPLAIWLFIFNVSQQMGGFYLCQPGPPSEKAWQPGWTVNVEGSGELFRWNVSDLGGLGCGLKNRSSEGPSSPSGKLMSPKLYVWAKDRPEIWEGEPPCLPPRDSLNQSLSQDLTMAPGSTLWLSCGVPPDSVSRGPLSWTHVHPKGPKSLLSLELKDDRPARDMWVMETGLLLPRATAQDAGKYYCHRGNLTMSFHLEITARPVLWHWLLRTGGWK

T2: human CD19 expressed on the cell surface (native format) (human, UniProt P15391 20-488)
T2 construct: Endogenous on Raji, Jeko-1 and primary human B cells (CD20+CD3- gate); transduced into NIH/3T3 (3T3-CD19); also called hCD19; cell-surface human CD19
T2 sequence: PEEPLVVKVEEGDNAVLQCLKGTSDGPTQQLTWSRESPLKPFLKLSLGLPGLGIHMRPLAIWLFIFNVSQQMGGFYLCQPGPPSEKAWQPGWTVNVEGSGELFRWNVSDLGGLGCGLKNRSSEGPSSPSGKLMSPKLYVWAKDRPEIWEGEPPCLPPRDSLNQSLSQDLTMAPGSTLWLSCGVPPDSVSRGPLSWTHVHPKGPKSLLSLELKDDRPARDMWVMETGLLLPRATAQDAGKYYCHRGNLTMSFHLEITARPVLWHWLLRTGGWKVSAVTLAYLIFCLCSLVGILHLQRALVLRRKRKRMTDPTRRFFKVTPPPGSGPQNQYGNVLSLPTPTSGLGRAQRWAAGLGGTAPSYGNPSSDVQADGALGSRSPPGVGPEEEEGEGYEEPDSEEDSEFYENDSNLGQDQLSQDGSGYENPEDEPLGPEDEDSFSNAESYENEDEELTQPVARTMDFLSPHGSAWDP

B1: 36 (scFv)
scFv (VL-linker-VH), shown on M13 phage: DIQLTQSPSSLSAYVGDRVTITCRASQGITNSLAWYQQKPGKAPKLLLHAASRLESGVPSRFSGSGFGTDFTLTISSLQPEDFAVYYCQHYLGTPYSFGQGTKVEIKRSRGGGGSGGGGSGGGGSLEMAEVQLVESGGGLVQPGGSLRLSCAASGFTVSSNYMSWVRQAPGKGLEWVSAISGSGGSTYYADSVKGRFTISRDNSKNTLYLQMNSLRAEDTAVYYCARMNIDYWGQGTLVTVSS
notes: hit from protein screening (ELISA); also called clone 36; anti-human CD19 scFv phage clone 36
B2: 9 (scFv)
scFv (VL-linker-VH), shown on M13 phage: QTVVTQEPSVSAAPGQKVTISCSGSSSNIGNNYVSWYQQLPGTAPKLLIYDNNKRPSGIPDRFSGSKSGTSATLGITGLQTGDEADYYCGTWDSSLSAGVFGTGTKLTVLGSRGGGGSGGGGSGGGGSLEMAQVQLVETGGGLVQPGGSLRLSCAASGFTFSSYAMSWVRQAPGKGLEWVSAISGSGGSTYYADSVKGRFTISRDNSKNTLYLQMNSLRAEDTAVYYCARYYYSRLDYWGQGTLVTVSS
notes: hit from protein screening (ELISA); also called clone 9; anti-human CD19 scFv phage clone 9
B3: 54 (scFv)
scFv (VL-linker-VH), shown on M13 phage: SYVLTQPPSVSVSPGQTASITCSGDKLGDKYASWYQQKPGQSPVLVIYQDNKRPSGIPERFSGSNSGNTATLTISGTQAMDEADYYCQAWDSSTEDVFGPGTKVTVLGSRGGGGSGGGGSGGGGSLEMAEVQLVESGGGLIQPGGSLRLSCAASGFTVSSNYMSWVRQAPGKGLEWVSVIYSGGSTYYADSVKGRFTISRDNSKNTLYLQMNSLRAEDTAVYYCARGGISDDYYGSGSYDNWGQGTLVTVSS
notes: hit from protein screening (ELISA); also called clone 54; anti-human CD19 scFv phage clone 54
B4: 43 (scFv)
scFv (VL-linker-VH), shown on M13 phage: SYELTQPPSASGTPGQRVTISCSGSSSNIGSNYVYWYQQLPGTAPKLLIYRNNQRPSGVPDRFSGSKSGTSASLAISGLRSEDEADYYCAAWDDSLSGYVFGTGTKVTVLGSRGGGGSGGGGSGGGGSLEMAEVQLVESGGGLIQPGGSLRLSCAASGFTVSSNYMSWVRQAPGKGLEWVSVIYSGGSTYYADSVKGRFTISRDNSKNTLYLQMNSLRAEDTAVYYCARGGFGAEFDYWGQGTLVTVSS
notes: hit from protein screening (ELISA); also called clone 43; anti-human CD19 scFv phage clone 43
B5: 23 (scFv)
scFv (VL-linker-VH), shown on M13 phage: QSVLTQPPSVSAAPGQKVTISCSGSSSNIGNNYVSWYRQLPGTAPKLLIYENNKRPSGIPDRFSGSKSGTSATLGITGLQTGDEADYYCGTWDSSLRAGVFGTGTKVTVLGSRGGGGSGGGGSGGGGSLEMAQVQLVESGGGLVQPGGSLRLSCAASGFTFSSYAMSWVRQAPGKGLEWVSGISASGGSTYYADSVKGRFTISRDNSKNTLYLQMNSLRAEDTAVYYCARYYLSQIDSWGQGTLVTVSS
notes: hit from protein screening (ELISA); also called clone 23; anti-human CD19 scFv phage clone 23
B6: 40 (scFv)
scFv (VL-linker-VH), shown on M13 phage: EIVMTQSPLSLSVTPGEPASISCRSSQSLLDSNGFNSLDWYLQKPGQSPQLLIHLGSDRASGVPDRFSGSGSGTDFTLKISRVEAEDVGIYYCMQSLQIPTFGQGTKVEIKRSRGGGGSGGGGSGGGGSLEMAQMQLVQSGAEVKKAGSSVKVSCETSGGTFSSSSVNWVRQAPGQGLEWMGGIIPIVGTPNYAQKFQDRVTITAVESTFTAYMELSGLRSEDTAVYYCARGGYRDYMDVWGRGTTVTVSS
notes: hit from protein screening (ELISA); also called clone 40; anti-human CD19 scFv phage clone 40

For the first experiment, the target named is T1, Recombinant human CD19 ECD-Fc fusion …. In words: ELISA, plate coated with human CD19 ECD-Fc, phage clone detected with HRP-conjugated anti-M13 antibody, OD450. The protocol:
Individual phage clones from enriched phage display panning pools were incubated in the coated plates. Binding of the phage clones was detected by HRP-conjugated anti-M13 antibodies and developed using HRP substrate. The absorbance was read at 450 nm.
In the case of B1, the binding result was “binds”. Turning to B2, the binding result is given as “binds”.

Turning to B3, the binding result is reported as “binds”. Same read-out and setting: next, B4: “binds”; B5: “binds”.

For a further experiment, the target named is T2, human CD19 expressed on the cell …. In words: flow cytometry, phage clone then mouse anti-M13 antibody then R-PE anti-mouse IgG; CD19+ Raji and 3T3-CD19, CD19- Jurkat and 3T3; MFI. The protocol: ELISA-positive phage clones were then tested for cell-surface human CD19 binding by flow cytometry using human CD19-positive Raji and 3T3-hCD19 cell lines, and human CD19 negative Jurkat and 3T3 cell lines (FIG. 1B). Cells were first stained with purified scFv phage clones, followed by mixing with a mouse anti-M13 monoclonal antibody, and finally a R-PE conjugated horse anti-mouse IgG (Vector Labs). Each step of staining was performed between 30-60 minutes on ice and cells were washed twice between stainings. One unique clone, 37, was identified to specifically bound human CD19⁺ Raji and 3T3-CD19 cells and not hCD19⁻ Jurkat and 3T3 (FIG. 1B).
Background: In flow cytometry, cells or beads pass a laser one at a time.
As for B6, the binding result is on record as “no binding”.
